Source: patent US20100273722
No end group written: not given here.

Tests used:
[1] = sedimentation equilibrium AUC, self-association, 5 C
[2] = sedimentation equilibrium AUC, self-association, 10 C
[3] = sedimentation equilibrium AUC, self-association, 15 C
[4] = sedimentation equilibrium AUC, self-association, 20 C
[5] = sedimentation equilibrium AUC, self-association, 25 C
[6] = sedimentation equilibrium AUC, self-association, 30 C

Protein	% monomer at 30 µM [5] [%]	also measured
GPSQPTAPGDDASPEDLIRFYDNLQQYLNVVTRHRY-NH2 [aPP^Y7AP13SV14P]		% monomer at 30 micromolar total peptide [1]: 74%; % monomer at 30 micromolar total peptide [2]: 82%; % monomer at 30 micromolar total peptide [3]: 84%; % monomer at 30 micromolar total peptide [4]: 90%; % monomer at 30 micromolar total peptide [5]: 90%; % monomer at 30 micromolar total peptide [6]: 98%
GPSQPTYPGDDAPVEDLIRFADNLQQYLNVVTRHRY-NH2 [aPP^Y21A]	14	
GPSQPTAPGDDAPVEDLIRFYDNLQQYLNVVTRHRY-NH2 [aPP^Y7A]	98	
GPSQPTAPGDDAPVEDLIRFYDNLRQYLNVVTRHRY-NH2 [aPP^Y7AQ25R]	78	
GPSQPEAPGDDAPVEDLIRFYDNLQQYLNVVTRHRY-NH2 [aPP^Y7AT6E]	79	
GPSQPTYPGDDAPVEDLIRAYDNLQQYLNVVTRHRY-NH2 [aPP^F20A]	100	
GPSQPTYPGDDAPVEDLIRFYDNLQQYLNVVTRHRY (ends and bridges not checked) [avian pancreatic polypeptide (aPP)]	23	
GPSQPTAPGDDAVPEDLIRFYDNLQQYLNVVTRHRY-NH2 [aPP^Y7AP13VV14P]	90	
